# Source: PMC5780489 (2018)
# Legend:
# [1] = target: T1, PABPC1 RRM1/2/3/4 (residues 1-370) (human, UniProt P11940 1-370); test: NMR; RRM1/2/3/4 bound to A24 RNA; W437 signal
# [2] = target: T1, PABPC1 RRM1/2/3/4 (residues 1-370); test: NMR; RRM1/2/3/4 bound to A24 RNA; T438 signal
# T1 sequence (P11940 1-370): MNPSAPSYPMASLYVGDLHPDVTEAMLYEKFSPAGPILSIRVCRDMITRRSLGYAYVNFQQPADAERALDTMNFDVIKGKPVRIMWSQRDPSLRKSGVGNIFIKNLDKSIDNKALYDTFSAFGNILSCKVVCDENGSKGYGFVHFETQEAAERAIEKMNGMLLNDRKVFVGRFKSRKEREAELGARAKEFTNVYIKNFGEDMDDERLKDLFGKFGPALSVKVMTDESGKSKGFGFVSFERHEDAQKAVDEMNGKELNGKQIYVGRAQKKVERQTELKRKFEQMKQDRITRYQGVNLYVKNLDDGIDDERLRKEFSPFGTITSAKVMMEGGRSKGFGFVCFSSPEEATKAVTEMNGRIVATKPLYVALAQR
binder,measurement,setting,value
AYYPPSQIAQLRPSPRWTAQGARPHPFQNMPGAIRPAAPRPPFSTMRPAS [PABPC1 linker fragment Lt2 (residues 421-470)],Kd,[1],12 µM
same,Kd,[2],24 µM
